Holding throughout (experiment): IEDB peptide-MHC binding, cellular MHC/competitive/fluorescence; ≥ and ≤ were set here for values at or beyond the usual limits of such assays
The target in one experiment is HLA-A*02:04.
For another experiment, the target named is HLA-A*02:02. As to conditions: source organism: Human papillomavirus 16.
A further experiment has as its target HLA-A*02:03. The settings on record: source organism: Human papillomavirus 16.
For a further experiment, the target named is HLA-A*02:05. The settings on record: source organism: Human papillomavirus 16.
For the next experiment, the target named is HLA-A*02:06. As to conditions: source organism: Human papillomavirus 16.
The mark [1] stands for this setting: source organism: Human papillomavirus 16.

We go through 3 sequences from the Immune Epitope Database (IEDB).

Bounds are passed on as bounds.

Usually IC50 stands for the point on the concentration scale where inhibition reaches its midpoint. A high value points to a need for much substance.

Sequence FLPSDFFPSV yielded an IC50 with HLA-A*02:04 (source organism: Hepatitis B virus) of 1 µM.

As for TLGIVCPI, the IC50 with HLA-A*02:02 is 4 µM; with HLA-A*02:03, 2 µM; with HLA-A*02:04 (setting [1]), 4 µM; with HLA-A*02:05 it was no less than 20 µM; in the experiment with HLA-A*02:06, 28 µM.

Turning to YMLDLQPETT, the IC50 is 6 µM with HLA-A*02:02; 5 µM with HLA-A*02:03; 11 µM in the experiment with HLA-A*02:04 (setting [1]); no less than 100 µM in the experiment with HLA-A*02:05; no less than 70 µM in the experiment with HLA-A*02:06.
